{
  "source": "patent US20240010735A1",
  "about": "(EISAI R AND D MANAGEMENT, published 2024)",
  "key": {"[1]": {"target": "T1, human EphA4 extracellular region-Fc-His protein (human, UniProt P54764 20-547)", "T1 construct": "not shown: Fc region of human IgG1; histidine tag", "T1 sequence (P54764 20-547)": "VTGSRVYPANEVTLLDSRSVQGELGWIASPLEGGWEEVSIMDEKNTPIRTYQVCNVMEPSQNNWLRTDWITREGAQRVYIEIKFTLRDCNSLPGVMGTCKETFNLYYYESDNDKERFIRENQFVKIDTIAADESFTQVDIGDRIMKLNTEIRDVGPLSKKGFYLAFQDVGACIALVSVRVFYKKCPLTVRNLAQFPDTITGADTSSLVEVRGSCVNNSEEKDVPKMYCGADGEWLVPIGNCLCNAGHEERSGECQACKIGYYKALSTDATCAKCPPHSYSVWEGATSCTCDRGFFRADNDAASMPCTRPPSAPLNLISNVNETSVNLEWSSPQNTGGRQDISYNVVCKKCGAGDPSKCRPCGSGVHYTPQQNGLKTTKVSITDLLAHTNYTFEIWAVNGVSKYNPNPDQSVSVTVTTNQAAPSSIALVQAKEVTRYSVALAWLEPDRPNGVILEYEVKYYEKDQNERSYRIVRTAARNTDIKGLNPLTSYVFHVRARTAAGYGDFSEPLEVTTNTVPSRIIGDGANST", "assay": "ELISA: EphA4 extracellular region-Fc-His (1 nM) captured on anti-human IgG antibody, antibody A titrated with human IgG 100 µg/mL, HRP anti-mouse IgG, OD450 as % of top concentration", "procedure": "(§1) Donkey anti-human IgG antibodies (Jackson ImmunoResearch Laboratories) were coated onto the wells of a 96-well plate (Nunc). After incubating at 4° C. overnight, the wells were blocked at room temperature for 1 hour by 1% Block Ace (DS Pharma Biomedical). After washing 3 times with 0.05% Tween 20/PBS (Thermo […]), mouse, rat, monkey, and human EphA4 extracellular region-Fc-His proteins (final concentration 1 nM) were seeded into the wells, and incubated at room temperature for 1 hour. After washing 3 times, human IgG solution (100 μg/mL, Mitsubishi Pharma Corporation) and antibody A (0, 0.00013, 0.00064, 0.0032, 0.016, 0.08, 0.4, 2, 10, μg/mL) were supplemented to the wells, and incubated at room temperature for 1 hour. Horseradish peroxidase-labeled donkey anti-mouse IgG antibody (Jackson ImmunoResearch Laboratories) was added, and incubated at room temperature for 1 hour. After washing 3 times, TMBZ (3,3′,5,5′-tetramethylbenzidine, Sigma) solution was added to the wells, and upon confirmation of modest coloring, an equal amount of quenching solution (1 N H₂SO₄, Wako Pure Chemicals) was added to the wells, and absorbance at 450 nm was read by a microplate reader (PerkinElmer)."}, "[2]": {"target": "T2, rat EphA4 extracellular region-Fc-His protein (rat; human, UniProt D3ZZK3 20-547)", "T2 construct": "range 20-547; also called rat EphA4 extracellular region-Pc-His protein; not shown: Fc region of human IgG1; histidine tag", "assay": "ELISA: EphA4 extracellular region-Fc-His (1 nM) captured on anti-human IgG antibody, antibody A titrated with human IgG 100 µg/mL, HRP anti-mouse IgG, OD450 as % of top concentration", "procedure": "as §1"}, "[3]": {"target": "T3, monkey EphA4 extracellular region-Fc-His protein (monkey; human)", "T3 construct": "not shown: Fc region of human IgG1; histidine tag", "T3 sequence (chain, as listed by the source)": "as the sequence (P54764 20-547) above, with N406S counted along it", "assay": "ELISA: EphA4 extracellular region-Fc-His (1 nM) captured on anti-human IgG antibody, antibody A titrated with human IgG 100 µg/mL, HRP anti-mouse IgG, OD450 as % of top concentration", "procedure": "as §1"}, "[4]": {"target": "T4, mouse EphA4 extracellular region-Fc-His protein (mouse; human, UniProt Q03137 20-547)", "T4 construct": "Used as culture supernatant of transfected cells; not shown: Fc region of human IgG1; histidine tag", "T4 sequence (Q03137 20-547)": "as the sequence (P54764 20-547) above, with P59A, N121S, V124G, R250Q, S251N, T270S, K378R, N406S counted along it", "assay": "ELISA: EphA4 extracellular region-Fc-His (1 nM) captured on anti-human IgG antibody, antibody A titrated with human IgG 100 µg/mL, HRP anti-mouse IgG, OD450 as % of top concentration", "procedure": "as §1"}, "[5]": {"target": "T5, mouse EphB3 extracellular region-Fc-His protein (mouse; human, UniProt P54754 30-554)", "T5 construct": "extracellular domain; not shown: Fc region of human IgG1; histidine tag", "T5 sequence (looked up)": "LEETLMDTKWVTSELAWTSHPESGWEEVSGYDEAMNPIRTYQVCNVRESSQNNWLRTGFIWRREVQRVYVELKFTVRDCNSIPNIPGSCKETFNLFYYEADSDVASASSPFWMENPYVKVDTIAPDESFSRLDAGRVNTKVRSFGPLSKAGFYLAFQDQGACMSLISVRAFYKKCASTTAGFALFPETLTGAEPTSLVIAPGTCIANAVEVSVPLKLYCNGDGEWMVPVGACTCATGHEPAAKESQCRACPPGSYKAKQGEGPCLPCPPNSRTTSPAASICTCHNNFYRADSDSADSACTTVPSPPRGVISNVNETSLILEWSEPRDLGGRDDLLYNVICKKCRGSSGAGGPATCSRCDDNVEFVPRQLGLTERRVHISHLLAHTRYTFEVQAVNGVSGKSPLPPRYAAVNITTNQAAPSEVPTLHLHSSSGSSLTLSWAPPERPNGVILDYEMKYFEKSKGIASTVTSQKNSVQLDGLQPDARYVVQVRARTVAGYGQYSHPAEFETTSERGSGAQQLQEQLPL", "assay": "ELISA: Fc-His proteins (1 nM) captured on anti-6-His antibody, antibody B 10 µg/mL with human IgG 100 µg/mL, HRP anti-human kappa light chain antibody, OD450 as % of mouse EphA4-Fc-His"}, "[6]": {"target": "T6, mouse EphA1 extracellular region-Fc-His protein (mouse; human, UniProt Q60750 27-548)", "T6 construct": "extracellular domain; not shown: Fc region of human IgG1; histidine tag", "T6 sequence (looked up)": "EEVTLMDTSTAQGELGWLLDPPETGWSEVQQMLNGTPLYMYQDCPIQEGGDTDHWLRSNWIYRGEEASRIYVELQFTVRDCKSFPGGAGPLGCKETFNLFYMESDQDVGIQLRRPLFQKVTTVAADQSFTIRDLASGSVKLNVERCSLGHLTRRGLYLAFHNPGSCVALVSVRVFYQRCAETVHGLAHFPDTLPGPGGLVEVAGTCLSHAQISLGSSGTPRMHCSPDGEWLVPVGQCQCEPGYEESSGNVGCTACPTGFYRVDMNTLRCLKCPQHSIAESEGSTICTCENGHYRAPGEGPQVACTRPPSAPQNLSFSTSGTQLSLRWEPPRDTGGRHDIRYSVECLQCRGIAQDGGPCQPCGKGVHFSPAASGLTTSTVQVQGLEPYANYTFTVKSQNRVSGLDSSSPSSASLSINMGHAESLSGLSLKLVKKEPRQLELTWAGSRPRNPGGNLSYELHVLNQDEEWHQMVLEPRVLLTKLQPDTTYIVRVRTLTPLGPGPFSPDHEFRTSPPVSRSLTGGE", "assay": "ELISA: Fc-His proteins (1 nM) captured on anti-6-His antibody, antibody B 10 µg/mL with human IgG 100 µg/mL, HRP anti-human kappa light chain antibody, OD450 as % of mouse EphA4-Fc-His"}},
  "data": [
    {"binder": "mouse anti-EphA4 monoclonal antibody (antibody A) (antibody, mouse IgG1, kappa, V domains shown, purified from hybridoma supernatant) VH: QVQLKQSGPSLVQPSQSLSITCTVSGFSLTRYGVHWVRQSPGKGLEWLGVIWRGGSTDYNAAFMSRLSITKDNSKSQVFFKMNSLQADDTAIYYCAKESLFGVYYDYGYYSMDYWGQGTSVTVSS VL: DIQMTQSPSSLSASLGERVSLTCRASQEISGYLSWLQQKPDGTIKRLIYAASTLDSGVPKRFSGSRSGSDYSLTISSLESEDFADYYCLQYASYPLTFGAGTKLELKR", "values": [
      {"measurement": "EC50 (read off the curve)", "setting": "[1]", "value": "~100", "unit": "pM"},
      {"measurement": "EC50 (read off the curve)", "setting": "[2]", "value": "~100", "unit": "pM"},
      {"measurement": "EC50 (read off the curve)", "setting": "[3]", "value": "~100", "unit": "pM"},
      {"measurement": "EC50 (read off the curve)", "setting": "[4]", "value": "~100", "unit": "pM"}
    ]},
    {"binder": "humanized anti-EphA4 monoclonal antibody (antibody B) (antibody, human IgG2, V domains shown, expressed in Expi293F cells; also called humanized antibody of antibody A; HK2-42 / L1-8) VH: QVQLVESGGGVVQPGRSLRLSCAVSGFSLTRFGVHWVRQAPGKGLEWVAVIWRGGSTDYNAAFMSRLTISKDNSKNTVYLQMNSLRAEDTAVYYCAKESLFGVYYDYGYYSMDYWGQGTTVTVSS VL: DIQMTQSPSSLSASVGDRVTITCRASQEISGYLSWLQQKPGKAPKRLIYAASTLDSGVPSRFSGSRSGTEYTLTISSLQPEDFATYYCLQYASYPLTFGGGTKVEIKR", "values": [
      {"measurement": "binding result", "setting": "[5]", "value": "no binding (tested: 10 µg/mL)"},
      {"measurement": "binding result", "setting": "[6]", "value": "no binding (tested: 10 µg/mL)"}
    ]}
  ]
}
